Assay results published in patent US20240301076A1 (CEPHALON, published 2024).

T1: human CXCR2 (human, UniProt P25025 1-360)
T1 construct: also called CXC chemokine receptor 2; hCXCR2
T1 sequence: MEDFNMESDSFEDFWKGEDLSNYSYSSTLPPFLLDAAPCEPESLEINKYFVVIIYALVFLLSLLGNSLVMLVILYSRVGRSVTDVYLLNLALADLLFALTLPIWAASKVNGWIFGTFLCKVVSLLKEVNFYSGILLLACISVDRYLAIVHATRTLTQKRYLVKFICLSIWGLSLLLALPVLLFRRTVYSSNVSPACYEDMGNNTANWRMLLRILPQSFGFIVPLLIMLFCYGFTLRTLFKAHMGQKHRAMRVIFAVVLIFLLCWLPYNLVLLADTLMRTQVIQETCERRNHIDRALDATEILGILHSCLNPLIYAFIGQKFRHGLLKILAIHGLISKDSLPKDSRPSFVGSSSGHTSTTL


Molecular target: T1, human CXCR2
Experiment: flow cytometry, CXCR2-transfected Expi293F cells
Experimental: Harvested cells were resuspended in FACS buffer (1×PBS+0.5% (w/v) bovine serum albumin (BSA)+2 mM EDTA pH 7.2). Approximately 2×10⁵ cells were added per well in a 96-well round-bottomed plate. Cells were pelleted by centrifugation at 400 g for 5 mins at 4° C. and supernatants discarded. 25 μL of each test antibody or control antibody was added to the cells and incubated for 30 minutes at 4° C. Cells were washed twice in 100 μL FACS buffer followed by centrifugation at 400 g for 5 mins at 4° C.
For detection, 50 μL of secondary antibody (Table 2) was added to relevant samples. Commercially available antibodies that bound to transfected CXCR family members were used as positive controls to ensure that the cells were expressing the receptors. Cells were washed twice in 200 μL of FACS buffer followed by centrifugation at 400 g for 5 mins at 4° C. Before sample acquisition, cells were resuspended in 100 μL of FACS buffer. Samples were acquired using the high throughput sampler on a FACSCanto™ II cytometer (Beckton-Dickinson).
Each heavy chain was co-expressed with each light chain to produce a sequence optimized antibody variant. Antibodies were purified and tested for CXCR2 binding activity as described in General Methods.

| Binder | EC50 [nM] | Fold Improvement over 4A8 WT [fold] |
| --- | --- | --- |
| BKO-4A8 combinatorial variant 3c (antibody, human IgG4 S228P, lambda, V domains shown, IgG4 S228P, lambda) VH: EVQLLESGGGLVQPGGSLRLSCAASGFTFSSSTQSWVRQPPGKGLEWVSAISGRGRSTYYADSVKGRFTISRDNSKNTLYLQMNSLRAEDTAVYYCAIQMGYWGQGILVTVSS VL: QSALTQPPSASGSPGQSVTISCIGTSSDVGGYNYVSWYQQHPGKAPKLMIYEVSKRPSGVPDRFSGSKSGNTASLTVSGLQAEDEADYYCSSYAGSNNFGVFGGGTKLTVLG | 0.2 | 2 |
| BKO-4A8 combinatorial variant 4b (antibody, human IgG4 S228P, lambda, V domains shown, IgG4 S228P, lambda) VH: EVQLLESGGGLVQPGGSLRLSCAASGFTFSSSTQSWVRQPPGKGLEWVSAISGRGRSTYYADSVKGRFTISRDNSRNTLYLQMNSLRAEDTAVYYCAIQKGYWGQGILVTVSS VL: QSALTQPPSASGSPGQSVTISCIGTSSDVGGYNYVSWYQQHPDKAPKLMIYEVSKRPSGVPDRFSGSKSGNTASLTVSGLQAEDEADYYCSSYAGSNNFGVFGGGTKLTVLG | 0.4 | 1.25 |
| BKO-4A8 combinatorial variant 4c (antibody, human IgG4 S228P, lambda, V domains shown, IgG4 S228P, lambda) VH: EVQLLESGGGLVQPGGSLRLSCAASGFTFSSSTQSWVRQPPGKGLEWVSAISGRGRSTYYADSVKGRFTISRDNSRNTLYLQMNSLRAEDTAVYYCAIQKGYWGQGILVTVSS VL: QSALTQPPSASGSPGQSVTISCIGTSSDVGGYNYVSWYQQHPGKAPKLMIYEVSKRPSGVPDRFSGSKSGNTASLTVSGLQAEDEADYYCSSYAGSNNFGVFGGGTKLTVLG | 0.4 | 1.25 |
| BKO-4A8 combinatorial variant 6c (antibody, human IgG4 S228P, lambda, V domains shown, IgG4 S228P, lambda) VH: EVQLLESGGGLVQPGGSLRLSCAASGFTFSSSTQSWVRQPPGKGLEWVSAISGRGRSTYYADSVKGRFTISRDNSKNTLYLQMNSLRAEDTAVYYCAKQKGYWGQGILVTVSS VL: QSALTQPPSASGSPGQSVTISCIGTSSDVGGYNYVSWYQQHPGKAPKLMIYEVSKRPSGVPDRFSGSKSGNTASLTVSGLQAEDEADYYCSSYAGSNNFGVFGGGTKLTVLG | 0.9 | 0.44 |

Continued by falling EC50, values first:

| EC50 [nM] | Fold Improvement over 4A8 WT [fold] | Binder |
| --- | --- | --- |
| 0.8 | 0.63 | BKO-4A8 combinatorial variant 7b (antibody, human IgG4 S228P, lambda, V domains shown, IgG4 S228P, lambda) VH: EVQLLESGGGLVQPGGSLRLSCAASGFTFSSSTQSWVRQPPGKGLEWVSAISGRGRSTYYADSVKGRFTISRDNSRNTLYLQMNSLRAEDTAVYYCAKQKGYWGQGILVTVSS VL: QSALTQPPSASGSPGQSVTISCIGTSSDVGGYNYVSWYQQHPDKAPKLMIYEVSKRPSGVPDRFSGSKSGNTASLTVSGLQAEDEADYYCSSYAGSNNFGVFGGGTKLTVLG |
| 0.4 | 1.25 | BKO-4A8 combinatorial variant 5b (antibody, human IgG4 S228P, lambda, V domains shown, IgG4 S228P, lambda) VH: EVQLLESGGGLVQPGGSLRLSCAASGFTFSSSTQSWVRQPPGKGLEWVSAISGRGRSTYYADSVKGRFTISRDNSKNTLYLQMNSLRAEDTAVYYCAIQKGYWGQGILVTVSS VL: QSALTQPPSASGSPGQSVTISCIGTSSDVGGYNYVSWYQQHPDKAPKLMIYEVSKRPSGVPDRFSGSKSGNTASLTVSGLQAEDEADYYCSSYAGSNNFGVFGGGTKLTVLG |
| 0.4 | 1.25 | BKO-4A8 combinatorial variant 5c (antibody, human IgG4 S228P, lambda, V domains shown, IgG4 S228P, lambda) VH: EVQLLESGGGLVQPGGSLRLSCAASGFTFSSSTQSWVRQPPGKGLEWVSAISGRGRSTYYADSVKGRFTISRDNSKNTLYLQMNSLRAEDTAVYYCAIQKGYWGQGILVTVSS VL: QSALTQPPSASGSPGQSVTISCIGTSSDVGGYNYVSWYQQHPGKAPKLMIYEVSKRPSGVPDRFSGSKSGNTASLTVSGLQAEDEADYYCSSYAGSNNFGVFGGGTKLTVLG |
| 0.4 | 1 | BKO-4A8 combinatorial variant 6b (antibody, human IgG4 S228P, lambda, V domains shown, IgG4 S228P, lambda) VH: EVQLLESGGGLVQPGGSLRLSCAASGFTFSSSTQSWVRQPPGKGLEWVSAISGRGRSTYYADSVKGRFTISRDNSKNTLYLQMNSLRAEDTAVYYCAKQKGYWGQGILVTVSS VL: QSALTQPPSASGSPGQSVTISCIGTSSDVGGYNYVSWYQQHPDKAPKLMIYEVSKRPSGVPDRFSGSKSGNTASLTVSGLQAEDEADYYCSSYAGSNNFGVFGGGTKLTVLG |
